Test results taken from PMC5913127 (Scientific Reports, 2018).

How the values were obtained:
[1] = molecular target: Aβ1-40; experiment: ELISA, binding of Fab fragments to biotinylated Aβ1-40 on streptavidin-coated plates; settings: papain-generated Fab fragments, Aβ1-40-Lys-Biotin 1 μg/mL on streptavidin plates, average of two measurements
Procedure: For binding studies with Fab fragments, biotin-conjugated Aβ1-40 (Aβ1-40-Lys-Biotin; AnaSpec) was captured on streptavidin-coated plates (Thermo Fisher Scientific) by incubating 50 μL/well of the peptide at a concentration of 1 μg/mL in Assay Buffer (PBS containing 1% bovine serum albumin (BSA)) for 1 h at room temperature. Plates were washed with Wash Buffer (PBS containing 0.05% Tween-20) and blocked for 1 h at room temperature with Blocking Buffer (PBS containing 1% BSA). Antibodies or Fabs were serially diluted to the indicated concentrations in Assay Buffer, and 50 μL/well were added to plates in duplicate wells and incubated for 2 h at room temperature. Plates were washed three times with Wash Buffer, and bound antibodies or Fabs were detected using a horseradish peroxidase (HRP)-conjugated goat anti-mouse polyclonal secondary antibody (Jackson ImmunoResearch), followed by measurement of captured HRP by incubation with 1-Step TMB substrate (Thermo Fisher Scientific) following the manufacturer’s instructions.

[2] = tested on: dimeric Aβ1-15 MAP; experiment: ELISA with multi-antigen peptides, dimer; format: binding; settings: result in words
Procedure: (§1) Aβ peptide binding to anti-Aβ antibodies measured by isothermal titration calorimetry (ITC). Titration of mAb with Aβ1-28 peptide. […]
(§2) mAb:Aβ ratio. The solid line is the fit to a two-site binding model (2 Aβ peptides binding to 1 mAb). The average KD values were calculated from […]
(§3) ELISA of binding of anti-Aβ antibodies to bivalent and tetravalent multi-antigen peptides Biotinylated Aβ1-15 multivalent multi-antigen peptides (MAPs) based on branched lysine residues were custom synthesized and purified (LifeTein). […]
(§4) goat anti-mouse IgG Fcγ fragment-specific antibody (Jackson ImmunoResearch) in Coating Buffer. The coated plates were washed, blocked as described in Methods, and incubated with serial dilutions of dimeric or tetrameric biotinylated Aβ1-15 MAP in Blocking Buffer at the indicated concent rations in […]
(§5) (1 picture or pasted object on this page, not shown here)
(§6) Figure S5. Binding of anti-Aβ antibodies to dimeric and tetrameric Aβ as assessed by ELISA. (a) Design of biotin-conjugated Aβ1-15 multivalent multi-antigen peptides (MAPs). Binding of anti-Aβ antibodies to MAPs with Aβ1-15x2 dimer (b) and Aβ1-15x4 tetramer (c).

[3] = tested on: Aβ1-40 fibrils; experiment: Negative-stain EM of fibrils with gold-conjugated antibodies; format: binding; settings: fibril-associated 10-nm gold particles (≤10 nm to fibril) per μm^2; 100 images; ^chaducanumab higher
Procedure: Figure 3 Negative-stain electron microscopy of Aβ1-40 fibrils incubated with gold-conjugated anti-Aβ antibodies. […] 100 images were collected for each sample. A representative image for each data set is shown. Scale bars are 100 nm. (e) Labeling densities were calculated as the number of fibril-associated gold particles (distance of ≤10 nm to fibril) per 1 μm^2 for each image, with mean ± SD for each group. The differences in the gold-labeled antibodies binding to Aβ fibrils were tested with a one-way ANOVA.
(§7) Aβ1-40 and Aβ1-42 peptides (AnaSpec) were dissolved in 5 M guanidine-HCl, 50 mM Tris-HCl, pH 8.0 at a concentration of 1 mg/mL. For growth of the Aβ1-40 fibrils, the solution was dialyzed (dialysis tubes, 1 kDa cutoff, GE Healthcare) against buffer (100 mM Na2HPO4, pH 8, 0.01% NaN3) for 4–6 h, then sonicated and agitated based on protocols described by Petkova and colleagues. […]
(§8) A 5-μL aliquot of Aβ1-40 or Aβ1-42 fibril sample (1 mg/mL) was adsorbed for 1 min on a glow-discharged carbon-coated copper grid. […] All quantifications were done using the Visiopharm image analysis software. Gold-conjugated anti-Aβ antibodies and Aβ1-40 or Aβ1-42 fibrils were detected with a customized algorithm. […] The data were subjected to a D’Agostino & Pearson normality test, and P-values were subsequently calculated using a Kruskal-Wallis one-way analysis of variance (ANOVA).

[4] = tested on: Aβ1-42 fibrils; experiment: as above; format: binding; settings: fibril-associated gold particles per μm^2; 100 images; chaducanumab higher
Procedure: as §7, with “colleagues. For Aβ1-42 fibrils, the dialysis buffer was supplemented with 100 mM NaCl and 100 μM ZnCl2 to decrease fibril polymorphism, as previously described. All Aβ fibrils were grown at 24 °C for 3 days.” for “colleagues.”
as §8, with “(ANOVA). […]” for “(ANOVA).”
100 images were collected for each sample. […] (e) Labeling densities were calculated as the number of fibril-associated gold particles per µm2 for each image with mean ± SD for each group, as described in Fig 3. Quantification of the number of gold particles that […]

[5] = molecular target: fibrillar Aβ1-42; experiment: ELISA, binding of antibodies to immobilized Aβ1-42 fibrils; settings: mIgG2a chimeric antibodies on fibrillar Aβ1-42 coated at 2.5 μg/mL, 2 h room temperature, average of two measurements, read-out: mAb binding aggregated Aβ1-42 (EC50)
[6] = molecular target: Aβ1-40 monomer; experiment: ELISA-based competition assay: antibody binding to immobilized oligomeric Aβ1-42 competed by free monomeric Aβ1-40; settings: immobilized oligomeric Aβ1-42 2.5 μg/mL, antibody 0.4 nM, 2 h room temperature, mean of duplicate wells
Procedure: Finally, we determined the binding of Fab fragments of the antibodies to Aβ1-40 (Fig. 1d).
To measure competition by soluble monomeric Aβ1-40, plates were coated with Aβ1-42 peptide at 2.5 μg/mL as above. In this case the oligomeric preparation of […] was used as the substrate to ensure sufficient signal with each test antibody. […] The plates were incubated at room temperature for 2 h, and bound antibody was detected with an HRP-conjugated goat anti-mouse polyclonal secondary antibody followed by measurement of HRP activity using 1-Step TMB substrate as described above. All data points are the mean of duplicate wells.

[7] = tested on: tetrameric Aβ1-15 MAP; experiment: ELISA with multi-antigen peptides, tetramer; format: binding; settings: result in words
Procedure: as §1, §2, §3, §4, §5, §6

[8] = tested on: monomeric Aβ1-40; settings: read-out: mAb binding soluble Aβ1-40 (EC50); ELISA; monomeric biotinylated Aβ1-40 on captured antibody (5 μg/mL); average of two measurements
Procedure: For preparation of monomeric Aβ peptides, the Aβ HFIP film was dissolved in dimethyl sulfoxide (DMSO) at a concentration of 1 mg/mL then diluted to the target concentration in assay buffers and used immediately.
To measure binding of soluble monomeric Aβ1-40 peptide to immobilized antibodies, plates were coated with 50 μL/well of 5 μg/mL AffiniPure goat anti-mouse IgG Fcγ fragment-specific antibody (Jackson ImmunoResearch) in Coating Buffer. […] Plates were incubated at room temperature for 1 h, washed 3 times with Wash Buffer, incubated with serially diluted monomeric biotin-conjugated Aβ1-40 (Aβ1-40-Lys-Biotin; AnaSpec) in Blocking Buffer at the indicated concentrations, and washed 3 times with Wash Buffer. Binding was detected using HRP-conjugated streptavidin (Thermo Fisher Scientific) followed by incubation with 1-Step TMB substrate.

[9] = tested on: monomeric Aβ1-40-biotin; experiment: SPR, Fab fragments binding to surface-captured Aβ1-40-biotin; settings: SPR Biacore T200
Procedure: Figure 2 Surface plasmon resonance analysis of the binding of anti-Aβ antibody Fab fragments to Aβ1-40-biotin immobilized on a biotin-capture sensor chip surface. […] Fabs were injected over an Aβ1-40-biotin coated sensor chip for 2 min in (a) and 3 min in (b–d), where the rising response describes the approach to steady state binding and beyond which the response drops due to dissociation of the Fabs.
Binding kinetics and affinity measurements were performed with a Biacore T200 instrument (GE Healthcare). Aβ1-40-biotin was captured on a Biotin CAPture chip (GE Healthcare) at 3–7 pg/mm^2 from solutions at 10–20 ng/mL in Biacore buffer (10 mM HEPES, pH 7.2, 150 mM NaCl, 3.4 mM EDTA, 0.05% BSA, 0.005% surfactant P20) using reagents and protocols provided by the manufacturer. […] Antibody Fab fragments were injected for 2-3 min at 30 μL/min and a range of concentrations in Biacore buffer, as indicated in the Fig. 2 legend, and the binding response relative to a reference sensor with no Aβ1-40-biotin was recorded. Data were analyzed with Biacore T200 Evaluation Software v3.0 using a 1:1 binding model.

[10] = tested on: soluble Aβ1-28; experiment: SPR, soluble Aβ1-28 binding to surface-captured intact antibody
Procedure: Analysis of A binding kinetics using surface plasmon resonance (SPR)
To identify if surface immobilization through C -terminal biotin affects the bi nding of antibodies targeting the N terminus, a separate experiment was performed, in which the binding of soluble Aβ1-28 to surface-captured antibody was measured (Fig. S1). This truncated form of A β was used to minimize aggregation and contains the full epitope for all antibodies tested (Table 1). Intact antibody was captured at 100 -600 RU on a CM5 chip prepared with mouse antibody capture reagent (GE Healthcare), and the binding response of Aβ1-28 was measured relative to a reference sensor with no anti -Aβ antibody. In this assay
Surface plasmon resonance analysis of A1-28 binding to anti-A antibodies immobilized on a muIgG -capture sensor chip surface.
corresponding fits to a 1:1 binding model (red curves).
up to 30 µM. Kinetics and affinity constants determined are listed in (e).

[11] = molecular target: Aβ1-16 peptide; experiment: Microscale thermophoresis (MST); format: binding; settings: MST in solution; 5-TAMRA-labeled Aβ1-16; PBS, Triton X-100; average of three replicates
[12] = tested on: Aβ (Monomer, Aggregate); settings: A = aggregate, M = monomer; ref [9]–[19],[54] as given per antibody in column Ref. of Table 1; cited from earlier work
[13] = Fab binding to Aβ1-40-biotin captured at 3–7 pg/mm^2, 1:1 binding model

Molecule	EC50 [1] [nM]	affinity for dimeric Aβ1-15 MAP [2]	labeling density of ^chaducanumab compared to the named antibody [3] [fold]	labeling density of chaducanumab compared to the named antibody [4] [fold]	EC50 [5] [nM]	IC50 [6] [nM]	affinity for tetrameric Aβ1-15 MAP [7]	EC50 [8] [nM]	Association rate, ka [9, 13] [M⁻¹ s⁻¹]	Dissociation rate, kd [9, 13] [s⁻¹]	Kd ([9]; Fab binding to Aβ1-40-biotin, ^chaducanumab from steady state fit, read-out: Equilibrium affinity, KD) [nM]	decrease in affinity using soluble Aβ versus immobilized Aβ1-40 ([10]; comparison with Table 2) [fold]	decrease in association rate using soluble Aβ ([10]; comparison with immobilized Aβ1-40) [fold]	Kd ([10]; intact antibody captured at 100-600 RU on CM5 mouse antibody capture chip, 1:1 binding model, read-out: affinity of soluble Aβ1-28 for antibody) [nM]	Kd [11] [nM]	Aβ selectivity (Monomer, Aggregate) [12]
gantenerumab: anti-Aβ clinical candidate antibody, Ph3 (antibody, chains of the INN, looked up, V domains shown) VH: QVELVESGGGLVQPGGSLRLSCAASGFTFSSYAMSWVRQAPGKGLEWVSAINASGTRTYYADSVKGRFTISRDNSKNTLYLQMNSLRAEDTAVYYCARGKGNTHKPYGYVRYFDVWGQGTLVTVSS VL: DIVLTQSPATLSLSPGERATLSCRASQSVSSSYLAWYQQKPGQAPRLLIYGASSRATGVPARFSGSGSGTDFTLTISSLEPEDFATYYCLQIYNMPITFGQGTKVEIK	5.9	–	–	–	–	–	–	–	–	–	–	–	–	–	–	–
^chgantenerumab: murine chimeric IgG2a/kappa analog with the variable domains of gantenerumab (antibody, chains of the INN, looked up, V domains shown, murine chimeric IgG2a/kappa) VH: QVELVESGGGLVQPGGSLRLSCAASGFTFSSYAMSWVRQAPGKGLEWVSAINASGTRTYYADSVKGRFTISRDNSKNTLYLQMNSLRAEDTAVYYCARGKGNTHKPYGYVRYFDVWGQGTLVTVSS VL: DIVLTQSPATLSLSPGERATLSCRASQSVSSSYLAWYQQKPGQAPRLLIYGASSRATGVPARFSGSGSGTDFTLTISSLEPEDFATYYCLQIYNMPITFGQGTKVEIK	5.9	sub-nanomolar	3.6	3.1	0.3	330	sub-nanomolar	300	660000	0.015	23	> 50	20	~1000	97	–
BAN2401: anti-Aβ clinical candidate antibody, Ph2; mouse analog mAb158 (antibody, chains of the INN, looked up, V domains shown) VH: EVQLVESGGGLVQPGGSLRLSCSASGFTFSSFGMHWVRQAPGKGLEWVAYISSGSSTIYYGDTVKGRFTISRDNAKNSLFLQMSSLRAEDTAVYYCAREGGYYYGRSYYTMDYWGQGTTVTVSS VL: DVVMTQSPLSLPVTPGAPASISCRSSQSIVHSNGNTYLEWYLQKPGQSPKLLIYKVSNRFSGVPDRFSGSGSGTDFTLRISRVEAEDVGIYYCFQGSHVPPTFGPGTKLEIK	–	–	–	–	–	–	–	–	–	–	–	–	–	–	–	A ≫ M
